The target of this experiment is T1, mutant L858R/T790M EGFR on NCI-H1975 cells (human, UniProt P00533 25-1210).
T1 construct: whole, on cells; these cells carry both this EGFR and wild type c-Met; also called H1975 target cells; HER1
The experiment in a line: confocal imaging of AF647-labeled antibody in co-culture of M1 or M2c macrophages and H1975 target cells (data not shown). Here is the method:
Differentiated macrophages were harvested and plated onto CellCarrier96 ultra plates at 1,00,000 cells/well (Perkin-Elmer; Cat#6055302) overnight. Assays were performed using both adhered and non-adhered target cells. For assays with adhered target cells, the H1975 NucLight Red cells were plated at 20,000/well, adhered for 4 hours, then treated with labeled Ab cocktail for 1 hour at 4° C.

B1: JNJ-372.IgG2sigma (Fc effector silent JNJ-372) (bispecific antibody, V domains shown)
VH 1: QVQLVESGGGVVQPGRSLRLSCAASGFTFSTYGMHWVRQAPGKGLEWVAVIWDDGSYKYYGDSVKGRFTISRDNSKNTLYLQMNSLRAEDTAVYYCARDGITMVRGVMKDYFDYWGQGTLVTVSS
VL 1: AIQLTQSPSSLSASVGDRVTITCRASQDISSALVWYQQKPGKAPKLLIYDASSLESGVPSRFSGSESGTDFTLTISSLQPEDFATYYCQQFNSYPLTFGGGTKVEIK
VH 2: QVQLVQSGAEVKKPGASVKVSCETSGYTFTSYGISWVRQAPGHGLEWMGWISAYNGYTNYAQKLQGRVTMTTDTSTSTAYMELRSLRSDDTAVYYCARDLRGTNYFDYWGQGTLVTVSS
VL 2: DIQMTQSPSSVSASVGDRVTITCRASQGISNWLAWFQHKPGKAPKLLIYAASSLLSGVPSRFSGSGSGTDFTLTISSLQPEDFATYYCQQANSFPITFGQGTRLEIK
notes: Used AF488- or AF647-labeled in the assays; also called IgG2σ; EGFR/cMet IgG2G Ab
B1: the binding result was “binds”.

B2: JNJ-61186372 (JNJ-372), IgG1 anti-EGFR/c-Met bispecific antibody (bispecific antibody)
heavy 1: not shown
light 1: not shown
heavy 2: not shown
light 2: DIQMTQSPSSVSASVGDRVTITCRASQGISNWLAWFQHKPGKAPKLLIYAASSLLSGVPSRFSGSGSGTDFTLTISSLQPEDFATYYCQQANSFPITFGQGTRLEIKRTVAAPSVFIFPPSDEQLKSGTASVVCLLNNFYPREAKVQWKVDNALQSGNSQESVTEQDSKDSTYSLSSTLTLSKADYEKHKVYACEVTHQGLSSPVTKSFNRGEC
notes: Produced in a cell line incorporating low levels (<9%) of fucose
As to B2, the binding result was “binds”.
